Measured values as given in the domain aggregation screens of Martell et al. (2025).

Assay: soluble fraction after stress (log2 fold change); higher = more stays soluble; pooled small domains, quantitative proteomics
Conditions: stress: 75 degC
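Further: 20 min heating vs room temperature control held 20 min.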

Row | Sequence | soluble fraction (log2)
1 | HMSRDYKTELQERLQVNGPVKIEYQVIAEDESKPSFKVQLLVNDKKISEGQGRNKKAAEQQAAQAAL | 0.0103
2 | HMSREEFLTELRKALQGRVSQQTVNDNLRYYEEYILTESHKGKTEAEVIAELGNPRLLAKSIIDAENAT | 0.0701
3 | HMSRESNISTGRQLLEAQLPTWGYKKVEDIPSKQMKTALDAFNYKDVESLLQGLGEGSVALTTALRRLMP | -0.095
4 | HMSRFLEGILQRRAGGKNYFVPDDGSNPIFIADRNSAGAANGDRVRIAQFARRPRSGPEGEVVEILKRAK | -0.0772
5 | HMSRGAIVTGTVIEKNQSGIYVDLGYKSDGIVPIEEFDGEESKYNVGDQIRVYVKKVDDGHGQLML | 0.142
6 | HMSRGTRIDPNWQPSPEDRALARAEGFSDPEIDREALQFRDYWLGASGSNAVKLDWSATWRNWVRRAATNF | -0.396
7 | HMSRKERERSQHRRDILAAGEKIFAQKGYFNATIEEIAREAEFSVGTIYNFFSNKETLYQEIIRSI | -0.418
8 | HMSRLQDAELQAQIDKMAGAMQLRDIPVYVQDIPTINGLAAPDGRVFITQGFIDKYKLGEVSAGEIASVI | 0.29
9 | HMSRPLISNMLRLLNLPPTVQRKVAAGVISAGHARALLGLNDEKEIEKLANRIVAEGLSVRATEEIVAIA | -1.62
10 | HMSRWHEFLNKSEDGMKELDEQNQKVLTLLILQRFYQTPFQAKEDEEFYREFFERLSSVNEILG | -0.468
11 | HMSSAYLTVRGIDIDVIYKDIKNLHIAVYPPFGRVRVAAPSHLDDDQVRLAVIQRLTWIKRQRERLRST | -1.62
12 | HMSSDEAEYKLLLGQEGVAKSPLRPSGVVDFSGRRLDVQTLGDFIESGETVVVKQVNGHRVLVERK | 0.135
13 | HMSSDEEQLATLTRLLQKQEQIIQTLGPRNPMVSLQQYANTITKVIEMAGFKDTSQFINSQIP | 0.0951
14 | HMSSDLESVIGTHSQEANFALRSWGWIQPDETWKNLRPDQVSQILERANEFMAKAIESFANAQSE | -0.141
15 | HMSSDLLGVRVRRARARAGLTRRRLSLLSGVSERFLAQLESGQGNISIVLIRRVAAALGAELVELIGS | -0.555
16 | HMSSEDTQSRDRARKELSNEMSRIMKRYGLDYQPRDNADDIMNRLKAAGADENTLAYVQEKLK | -0.0442
17 | HMSSEITYDKFIEMVDKDQVKEVTLQSGVLTVVPKIQKSYYQNASYKVNQMEDVDALTKRLEGTGIVFHY | 0.322
18 | HMSSEITYDKFIEMVEEGNVKEVTLQSDTLTIKPKHQDSAFSEKEYYTRQMESADQLTERLEGTGIEFHS | 0.119
19 | HMSSEQRSVLFPNLAETDKVAVIEALMAAGVNARVDSASGRVTVPSGDYYNSRAILAAQGLPTS | 0.0148
20 | HMSSETTVPAVVGIKEDKARQLASEQGLRLRVKSREESADVEEGIIISQDPNSNTKVKKGDEIEVVVS | 0.102
21 | HMSSFSESFHKALNNLDDKHKSVFSLRHFEGFSMKEIAETLNINEGTVKSRLFYATKTLAGALKEF | -3.45
22 | HMSSGKTGTITLQPKQTVYGITKQYKISEADLRKLNPQLDSNLKIGDKITLPLDNIQRYSDSSSNVAQT | 0.0568
23 | HMSSGLLTVQEQRILEHLANGERNGDIAGRLHISEGTVKWHLHNMYRKLDAATRTQAVARARALRL | 0.36
24 | HMSSIGERISDVRKARGYTQDQLAERIHVSRQTISHWENERALPDFESIKQLSQVLGYDFSS | -0.123
25 | HMSSIHQDAKQQLHEYIRTYIQPLMRAGKQVTVWDIIGHVTIRKPKLVQKIGTQQLINMVQDLLE | -0.624
26 | HMSSKSDQLYLQLRRRISAMKDGEPFPTVRQLMTEYQVSQSTVTPAINQLKEKGLIEAYVGRGSFVSKK | -0.657

Row | Sequence | soluble fraction (log2)
27 | HMSSKTKVEDLGLSTRTLNALIGGSIKTAGGLTRKSESDLLSLDGLGEKGITEIKEALENIGLSLK | 0.103
28 | HMSSLKKISIDELSPGMYVHSIVEQKGSVKIKSQGKVLKQAVVDALRKRGVKTLLIDLSKQFNPETGEP | -0.985
29 | HMSSLTPRETEVLSRMAQGDANTSIAERLVITEKAVQKHINAIFAKLGLAEEPTSARRVLAVLAFLR | -0.539
30 | HMSSLTQREYEIAELVADGLSNKAIAAELSISHTTAARHVANIMNKLGFNSRSQIAAWVADRAQG | 0.0373
31 | HMSSNLSLHKEGNKIVILGLEGKSVIEVYDLMGRLLSSQTNYNPKQEITLLQPVIIRVTDTQQTKSFKV | -1.5
32 | HMSSNLTVFTRNNAIIVNSDVVRKLNVFAVDGRLVRSVDLSVGENVINNISRGMYLIDKQKVVV | -2.77
33 | HMSSPDMSLLYSELDVKDSGQIVTILEQRNIPYEVRNNGSQIYIPSNNVQRIRLSLAQEGLPSG | 0.111
34 | HMSSPTAKATGSSVNIRKSASTGAAVLKRVEKGTVLEAVSISDGWVKVKYSGVTGYVSADYVKVSGL | -2.19
35 | HMSSQGQNTKTGTVTASALYVRSGAGTNYSQIGYLLKNTKVEIVGQTGSWYKIKFGSGTGYVSSKYIK | -2.69
36 | HMSSQLETTFATLIGKRVSIRLHDPEGGFRDILGHLESPYSLRNRHGNLIEFAHDQIFLWREVI | -1.82
37 | HMSSRNLIIFYDSPQAENALLATAERYGAILLHHYRNLHGIAVAIPADKDMAQAVTYFSRQPGVRQV | -2.56
38 | HMSSSKVAISQFEELVDQGQVREVVIEGSTATGTTAAGRRFAAEIPPGGMELFLSKLDDAGTTYEYSPP | 0.822
39 | HMSSSYTEMQLDKLKKLLEKETLLSSEKSELKSLIHDFDKIPEVVSPLIVGEYLRLKNKYIAVINSLE | -1.25
40 | HMSSSYTEMQLERFKELLNKETLLSSEKNELKNLISDFDKISEIVSPLVVGAYLQLKNEHIETINSLG | -0.507
41 | HMSSTAIQAMIRRLIDGEDPRKPLSDARLAETLKASGVPVARRTVAKYRESMSIPSSQDRLRI | -0.577
42 | HMSSTSTKTQNIVHIVKSGETLSAIASKYGVSVDNIKKWNNLSSDKLSIGQKLKINPTTQTSS | 0.29
43 | HMSSVEEILQTLGGRIRTQRLAQGISQQVLADRAGLSLGAVRQLEGSGQSGLDTLVRVLFVLGIVDEL | -2.27
44 | HMSSVHTMEVKSTTQIKVLDENKNLSSYYSMKNPVSFNYRLFFLNQDELKKLQEDLKTNNDIQSIDIKYA | -0.484
45 | HMSTALTPLTTREREVLALMAEGLTNSGIAARLVLTDRTVETHVSRILHKLGLGETTTNEHRRVLAVLRYL | -1.72
46 | HMSTASPEELRQTPERRRLIEYLREHGGHGRTSEIAAALGIDDSTASRLLRRLADNGLIVRTQYGEYTLLQ | -0.184
47 | HMSTEAVVMSSSVSVKSSPDKASTDLFVLHEGTKVRTVSELGDWREIVIADGKKGWVEARTIET | 0.756
48 | HMSTEPLALVGKTGIAATVLRPSGRIEVDDKYYDAVSLGAFIEKGEMVNIVKYENLQLYVAKL | -2.18
49 | HMSTFAQNLRALMEKRGVSQNELARSAGLTQSAINKILTGKTKQPGIDTTEAIARVLNVSVAQLIYT | -1.4
50 | HMSTFTPYLVKVTTSVLNIRKGAGTNYGTNGSIRDMGTYTIVAEADGQGASKWGKLKSGAGWISLDYTKK | -2.33
51 | HMSTILERLIMLQEQSGMNQKQLQKELGLSNSAFSDWKKGKGRPSVEALVRFSEFFGVSMDWLAFG | -2.27
52 | HMSTKRQKELLEYVDRFITEHGYGPSYREIMNAIGYKSVSTVAIHIDGLIAKGYLRKRDNSARSLEVV | -1.17

Row | Sequence | soluble fraction (log2)
53 | HMSTKYSSNIISLVKGLMEEDQYKDLMGPPLKKEIIKKVESITDTFPYKFDKDDKEFIVKKVLISLRK | -1.77
54 | HMSTLKSALDEIPGIGAARKRALLNHFGSTRVISSVGVKDLEQVEGVSKKIALLIYGYFHDK | -2.57
55 | HMSTLSIHIPDKFAGQRLDQALAELYSQFSRSRLQQWLNDGELLVDGKSVKANKKVLGGEFIQILK | -1.24
56 | HMSTPENLGGRNTAKARISWLENGVKQELESDFPAAEVVKLSSRFGGEVPELTVIRPSLEDIYLKMIG | -0.00898
57 | HMSTPLVATLRKRIIDGHYPPGERLAEIPVAEAFGVSRTPVRLAFRTLEQEGLLEKAGKRGYAVRA | -0.164
58 | HMSTQVPDVKERSQEEARSILESAGFKVTPAVKTEDSADIAKDMVTKTDPAAGQSVPKGTTITIYVSS | 0.126
59 | HMSTRLIGEIGVVTKDLGAGLKENGSIQIGREEWPAETKDMEHIPMGTRVKVIHIEGTRLVVEA | -0.561
60 | HMSTSRAEIIAFLKSNPSSEYKHELETKLDEMDWAEAVKGNSEESFLAYKQRQPNGTHNGEADEKLKVLLV | -0.0423
61 | HMSTVISPLPGNIIKVLVPEGKSVKRGDTILTIESMKMENSIKAAYDGVVKKIYVQQAQIVMQGDPLFDL | -2.86
62 | HMSVALSENIKTRRKALKMSQEYVAEQLDISRQAVAKWEAGKSEPTTENLVKLAALFEMSVSELVE | -0.969
63 | HMSVDDVALRLEFGPSDAEALAFVHRHGAILSETTDRDTGVVSVHVRLSEADAGRFNQRYGV | -0.0968
64 | HMSVDDYLKFSGSGTYWNTQDRGKTYLVNGQQRPLRDKEYLPDVMHRHVIDFITKHRDRPFYIYYSM | 0.173
65 | HMSVDVEGNQRIPTEQVLSELRDVGVSFGKRVSGLNADTIRNQMIINNDEIAWLGVNVRGSRVYVEITERI | 0.125
66 | HMSVERIEPPLPLIDTLLALRDALERPLSREENAFLSRRFAGGATRAQIDALAAQFRGAAAAESKV | 0.0516
67 | HMSVETSDLLPLIEQVLSLNPDKVKEYQNGKKGLLGFFMGQIKQTAGVAIDVGTLKPLLEDALHKDL | -0.861
68 | HMSVEYRKTLSDGNEYQIVKEKNGYVIKKSLNEGLDYLEPMKNRKYYSSYSQAFKRLNLIAKEVNINEGYD | -0.511
69 | HMSVFGMEIGKTTEAEAGRMYRLNKEQLNPYSGGYQYSVNPKAIDFSGLEQVTLIFDEKKVLVYVQAV | 0.144
70 | HMSVIETLLSDREREVLTHLVNGYDAKRIAEITGISTLTVRKHIANIYTKLHVNSKAQVISMAHKNKWF | -2.7
71 | HMSVIKERLTEFLTYKGIGQIKFAEAAGLSRGFVNVLGDGISSKSLNKISQAFPELNTLWLTTGEGEML | -1.72
72 | HMSVKTIRKTEFAKRLYSLMLEKNWNQSDLARASGMGRDSVSQYIRANNTPSPQNLKKLAEALGVEPVELY | -2.05
73 | HMSVKYLQIYHAIREKILSNEYAINQQLPDEITLTKEFNSSRMTVKKALDLLVSEGLIFRKRGQGTFVLSR | -3.67
74 | HMSVLDEVRKLSFHQRNAVFLFYFEGYSMKEIAQIFHVKEGTVSSWLTRARKQLRKQMEEEVLYDESLP | -0.473
75 | HMSVLLDDLSPREREILQLVVEGHSSTKIAGMLGLASATVDTYRSRLMAKLHIDNLPDLVRFAIRHGLIS | -2.46
76 | HMSVLLKEEGSLQLARHGAAYFIIYSAQEHPNQRRHLKISEEESNRIMEGTPIEEIFLAYSG | -1.67
77 | HMSVLQGLIESFKAGDRNLYEVAERLNVTEPFLAEALKDYRARFPKGVQVDNFWISFRPYLTIAEV | -1.17
